Experimental data reported in paper PMC2132775 (The Journal of Cell Biology, 1998).
Like-named read-outs stand apart in the source and are kept apart here.

What was measured:
[1] = molecular target: FLA10, the 90-kD subunit of FLA10 kinesin-II (fla10 gene product) (Chlamydomonas reinhardtii (endogenous in flagella)) (UniProt P46869); assay: SEC + other: sucrose density gradient centrifugation
[2] = molecular target: FLA10, the 90-kD subunit of FLA10 kinesin-II (fla10 gene product) (Chlamydomonas reinhardtii (endogenous in flagella)) (UniProt P46869); assay: as above; remark: listed apart in the source
[3] = molecular target: T1, p172, IFT particle polypeptide of complex B (Chlamydomonas reinhardtii (endogenous in flagella)), Q5DM57; assay: sucrose density gradient centrifugation; conditions: remark: other sources report otherwise
T1 chain: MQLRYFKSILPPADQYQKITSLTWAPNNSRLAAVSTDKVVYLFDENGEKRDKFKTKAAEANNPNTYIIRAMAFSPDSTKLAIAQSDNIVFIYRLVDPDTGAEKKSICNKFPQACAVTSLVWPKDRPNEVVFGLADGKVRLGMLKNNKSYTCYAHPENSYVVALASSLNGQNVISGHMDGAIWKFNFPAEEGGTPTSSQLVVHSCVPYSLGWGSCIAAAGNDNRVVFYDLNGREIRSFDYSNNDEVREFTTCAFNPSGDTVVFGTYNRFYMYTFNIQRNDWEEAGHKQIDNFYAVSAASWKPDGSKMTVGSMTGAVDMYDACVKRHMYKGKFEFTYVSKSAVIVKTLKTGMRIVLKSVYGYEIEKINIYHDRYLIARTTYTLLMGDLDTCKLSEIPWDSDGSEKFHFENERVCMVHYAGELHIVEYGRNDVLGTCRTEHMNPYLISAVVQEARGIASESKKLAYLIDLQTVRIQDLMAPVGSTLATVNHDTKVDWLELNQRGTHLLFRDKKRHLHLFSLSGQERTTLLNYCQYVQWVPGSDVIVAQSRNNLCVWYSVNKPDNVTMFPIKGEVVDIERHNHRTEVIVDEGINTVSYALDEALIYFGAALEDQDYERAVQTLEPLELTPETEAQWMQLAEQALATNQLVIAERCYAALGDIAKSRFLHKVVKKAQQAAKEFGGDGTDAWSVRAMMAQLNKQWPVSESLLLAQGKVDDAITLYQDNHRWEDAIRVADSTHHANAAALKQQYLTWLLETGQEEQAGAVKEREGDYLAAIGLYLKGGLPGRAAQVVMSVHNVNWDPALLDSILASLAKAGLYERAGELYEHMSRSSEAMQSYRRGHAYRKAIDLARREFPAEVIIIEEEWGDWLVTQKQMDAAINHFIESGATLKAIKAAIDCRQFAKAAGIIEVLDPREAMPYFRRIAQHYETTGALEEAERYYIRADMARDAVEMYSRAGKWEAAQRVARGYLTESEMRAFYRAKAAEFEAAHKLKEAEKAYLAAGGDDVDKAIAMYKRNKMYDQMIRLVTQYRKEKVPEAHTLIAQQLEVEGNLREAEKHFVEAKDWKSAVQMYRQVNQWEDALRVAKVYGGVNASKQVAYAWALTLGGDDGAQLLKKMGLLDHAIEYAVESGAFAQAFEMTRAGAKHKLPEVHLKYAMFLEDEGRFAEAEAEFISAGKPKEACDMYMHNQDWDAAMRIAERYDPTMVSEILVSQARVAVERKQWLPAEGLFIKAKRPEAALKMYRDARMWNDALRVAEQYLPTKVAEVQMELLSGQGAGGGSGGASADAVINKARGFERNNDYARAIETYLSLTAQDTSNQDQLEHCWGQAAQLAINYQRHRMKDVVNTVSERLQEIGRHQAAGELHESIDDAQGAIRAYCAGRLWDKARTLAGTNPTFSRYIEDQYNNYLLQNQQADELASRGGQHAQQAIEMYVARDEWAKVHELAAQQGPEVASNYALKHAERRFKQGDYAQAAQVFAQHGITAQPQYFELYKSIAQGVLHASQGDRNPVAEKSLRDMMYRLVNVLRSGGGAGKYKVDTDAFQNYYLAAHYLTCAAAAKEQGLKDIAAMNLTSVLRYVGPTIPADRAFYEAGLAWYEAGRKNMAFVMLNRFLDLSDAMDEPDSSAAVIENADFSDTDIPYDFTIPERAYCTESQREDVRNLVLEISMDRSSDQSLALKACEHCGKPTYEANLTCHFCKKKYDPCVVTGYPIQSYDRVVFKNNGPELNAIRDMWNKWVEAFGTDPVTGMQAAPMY

[4] = molecular target: T2, FLA10, the 90-kD subunit of FLA10 kinesin-II (fla10 gene product) (Chlamydomonas reinhardtii (endogenous …, UniProt P46869 1-786)); assay: SEC + other: sucrose density gradient centrifugation
T2 sequence (looked up): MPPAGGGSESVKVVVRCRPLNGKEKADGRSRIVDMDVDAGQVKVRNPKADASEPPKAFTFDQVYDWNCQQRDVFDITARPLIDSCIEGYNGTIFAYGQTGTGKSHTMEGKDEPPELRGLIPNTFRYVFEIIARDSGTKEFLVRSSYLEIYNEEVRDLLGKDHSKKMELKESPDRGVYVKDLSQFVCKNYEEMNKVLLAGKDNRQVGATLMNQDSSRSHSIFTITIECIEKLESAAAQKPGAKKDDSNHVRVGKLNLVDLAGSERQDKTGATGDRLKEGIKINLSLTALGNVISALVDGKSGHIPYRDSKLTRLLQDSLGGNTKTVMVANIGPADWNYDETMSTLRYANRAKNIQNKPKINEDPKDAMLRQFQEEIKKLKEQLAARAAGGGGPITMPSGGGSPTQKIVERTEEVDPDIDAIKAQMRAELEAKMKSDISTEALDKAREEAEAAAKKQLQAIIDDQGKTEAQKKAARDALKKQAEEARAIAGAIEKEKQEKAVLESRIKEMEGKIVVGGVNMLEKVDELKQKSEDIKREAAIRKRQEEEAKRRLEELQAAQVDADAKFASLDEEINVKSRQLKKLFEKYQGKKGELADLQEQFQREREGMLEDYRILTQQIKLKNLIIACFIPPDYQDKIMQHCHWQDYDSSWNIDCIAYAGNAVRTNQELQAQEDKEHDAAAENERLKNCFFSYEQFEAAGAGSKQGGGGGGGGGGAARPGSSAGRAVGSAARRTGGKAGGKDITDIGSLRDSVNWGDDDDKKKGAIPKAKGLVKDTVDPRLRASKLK

100-kD nonmotor subunit of FLA10 kinesin-II (natural protein)
stoichiometry N [1]: 1 | stoichiometry N [2]: 0.8

B1: p81, IFT particle polypeptide of complex B, Q68RJ5 1-683 (natural protein)
chain: MGDVSYIVDSLGLPPFSYQMSLLSFTEKGPQELLQLLSDVFSTISPKHQKVDVAKEVPDQTADRLIGFLKIIKYRPNVQDPLLFRQLVAAGDRETLYQILRWVVPQAQLLEKRAFVGYYLSFPDMPEEFNFDPDIMELKEEIKAMQQEFIELHKSSDAIKTLSKDTQALKNKIKSLEEEKERLGEKVERAKGAVDKLPDRSSYMEVCTNLRKQQDEEVNLSTAIQTQRALQEKAEASYHRAAARLRELQTSYQEGSAGKLLETLNEDVKNLRAQVNERYPKEVEKRQKRQAALSEALASGISTEMDLQRLQHQATALHNQITEIQERKVAQDKARQGDKAYLQLRQAQQMATVSARKKEELGAKQERLQEKKTALTAQLDKLNAEGGGSGAVFSEEEWRTKYESMKSKLPIYKKMKKELGDLEAEVFVLAHTEELLASQEGGLLEKVKRLEKQQGISGFTETAQHLEKVSEAKSQMDEEKGMTLIEISRTVEEINNAINQRKQQLAPQIKKLRSVRQDFAEFEAKYLEKKTAYDNVVATFEARTSALEGEVSGLKAEVSENETKYHMLHCQLHITDQNIKKVTSGPAAERLRDKYEAKVKEAEDSTKALRDRQREIKDTHSTGLSQIDIMNDMLRLLQLKLNLARGIAVDMSQYGGGGGAAGGANGGMAGQTYDTGSANVLQL
stoichiometry N [3]: 1

B2: 85-kD subunit of FLA10 kinesin-II (natural protein, UniProt A7LGV1 1-768, looked up)
chain: MASGGECVKVAVRCRPLNGKEKGDNRATIVEVDNKTGQVTLNNPKGDEPPKTFTFDNAFDWNVTQRDVYDVVARPIVNSVMDGYNGTIFAYGQTGTGKTHTMEGFPTPELQGIIPNCFDHVFETVNSSTGKQWMVRASYLEIYNEEVRDLLSKDPKNKLELKEHKDSGVYVKGLNAFVVKGVPELKNVLEVGKKNRSVGATLMNQDSSRSHSIFTITIETIEQTQAQPEGHIRVGKLNLVDLAGSERQSKTGATGDRLKEATKINLSLSALGNVISALVDGKSGHVPYRDSKLTRLLQDSLGGNTKTIMCANMGPADWNYDETLSTLRYANRAKNIKNKPKINEDPKDAMLREFQDEIARLKAALEAEGGALPEGFATGPGGEIIVEKVVQVPKALDASFLEQMRKDMEEQMKKELASQQAAALNDEQLQKVKEEAAAKAKAEAARLEEEKKKAEEEAARMQRKQQKIKAEMDKKSLDAEQIRAEKEALAKKLKAMESKILKGDQAGGLAEVTKKKEEELKRKEQELERRRKEEEEQRKKIQVMEEQQLAMEDKYKDKADEADQKTKKLKKLWKKFQEVNAEVEDMYKEFQREKEDLLESIRMLQDQMQLKDMVIEAFIPPEEVQKVMKRAHWDDEREVWVLERLSDIGKRETAQGASRRPVSASGQRRPTSDFAKLANAMGDMNPRFKSENILNLELDLPERTTYDYEGPGVDPRVQAAINAAFAEDGELIFVGSEQNVHLGDASAAAARPDSAKKRPASARKGTKK
stoichiometry N [4]: 1
